Holding throughout (assay type): cell-based
The subject of assay [1] is LNCaP C4-2 cells. Kind of assay: Western blotting of death receptors, caspases, Bid, cytochrome c, Akt. The following applies: LNCaP C4-2; for DR4 levels: FIG. 2B. On the procedure:
(§1) LNCaP were obtained from American Type Culture Collection (Rockville, Md.) and LNCaP C4-2 cells were purchased from Urocor Inc., Oklahoma City, Okla. Cells were grown in RPMI 1640 medium supplemented with 10% (LNCaP) or 5% (LNCaP C4-2) fetal bovine serum (Hyclone, Logan, Utah) and grown in the presence of 5% CO2 at 37° C. Cells were treated with 10 μM Mifepristone (Sigma, St. Louis, Mo.) for three days or with increasing concentrations (from 200 ng/ml to 600 ng/ml) of TRAIL (Biomol Research Laboratories, Inc., Plymouth Meetings, Pa.) for varying time intervals 2, 4, 6, 8, 16, 20 and 24 hours (hr). Thus, for treatment with Mifepristone, cells were treated with Mifepristone for three days and then some cells treated (without washing) with TRAIL for indicated periods. Upon completion of the experiment, cells were harvested, and total proteins, cytosol or mitochondrial fractions were isolated as described below. At least three experiments were conducted with a minimum of four plates per treatment per experiment.
(§2) For experiments using inhibitors, the cells were pre-treated with increasing concentrations of the inhibitors (10 μM to 100 μM) for one hr and then with TRAIL. Caspase-8-specific (Z-IETD-FMK) and caspase-9-specific ([…]) inhibitors were purchased from Enzyme Systems Products, Livermore, Calif. The inhibitors were dissolved in DMSO; to limit cellular toxicity, care was taken not to exceed 0.2% DMSO in the culture medium. Appropriate controls included vehicle treated cells with or without the inhibitors.
(§3) Cells were harvested by trypsinization, washed in 1×PBS and cell pellets resuspended in lysis buffer (100 mM Tris-HCl pH 8.0, 0.1% Triton X 100 and protease inhibitor cocktail from Roche Diagnostic Corporation, Indianapolis, Ind.). Cells were incubated over ice for 30 min and centrifuged at 10,000 g at 4° C. for 10 min. The supernatant was collected and the protein concentration estimated using Bio-Rad protein reagent (Bio-Rad Laboratories, Hercules, Calif.).
(§4) Proteins (50 μg, unless stated otherwise) were separated on NuPAGE 10% Bis-Tris gels (Novex pre-cast mini gels, InVitrogen, Carlsbad, Calif.) at 100 volts for 1 hour in the presence of 1×MES-SDS running buffer (InVitrogen, Carlsbad, Calif.). Separated proteins were transferred to (PVDF) membranes (Bio-Rad Laboratories, Hercules, Calif.) at 42 volts for 2.5 hr using a Novex XCell II blotting apparatus in MES transfer buffer in the presence of NuPAGE antioxidant. Transfer of the proteins to the polyvinylidene difluoride (PVDF) membrane was confirmed by staining with Ponceau S (Sigma, St. Louis, Mo.). The blots were blocked in 5% non-fat dry milk in TBS, washed twice for 10 min each with TBS containing 0.1% Tween-20 and incubated for 2 hr at RT with primary antibody diluted in TBS containing 0.5% milk.
(§5) The following antibodies were used in the immunoblots: DR4, DR5 and cytochrome c (Imgenex, San Diego, Calif.), BID (BioSource International, Camarillo, Calif.), caspases-8, -9, and Akt (Cell Signaling Technology, Beverely, Mass.), caspase-3 (BD Pharmingen, San Diego, Calif.) Iκβ and XIAP (Cell Signaling Technology, Beverly, Mass.), cFLIP (StressGen Biotechnology Corp, Victoria, Canada), actin (Sigma Chemical Co., St. Louis, Mo.) and Cox II (Molecular Probes, Eugene, Oreg.). Immunoreactive bands were visualized using ECL detection system (Amersham, Pharmacia Biotech, Arlington Heights, Ill.) and signals were developed after exposure to X-ray film (X-Omat films, Eastman Kodak Company, Rochester, N.Y.).
(§6) For separation of mitochondrial and cytosolic fractions, cells were trypsinized, centrifuged at 600 g for 10 min at 4° C., washed twice in ice-cold PBS and re-suspended in buffer A (20 mM HEPES-KOH, pH 7.2, 10 mM KCl, 1.5 mM MgC12, 1 mM sodium-EDTA, 1 mM sodium-EGTA, 250 mM sucrose and protease inhibitor cocktail). Cells were homogenized on ice with a glass Dounce homogenizer (30 strokes) and were centrifuged at 750 g for 5 min at 4° C. […]

Assay [2] has as its system LNCaP cells. The description is as above. As to conditions: LNCaP; for DR4 levels / expression of DR5: FIG. 2A. The protocol: as §1, §2, §3, §4, §5, §6
For assay [3], the system named is LNCaP C4-2 cells. The assay is described as follows: MTT assay (cell survival). As to conditions: for cell survival: 400 ng/ml TRAIL and/or 10 μM Mifepristone for three days, FIG. 1B. The protocol:
as §1, with “experiment. Two methods were used to measure induction of apoptosis by drug treatment: the MTT assay and the Apoptosense assay. The MTT assay measures mitochondrial enzyme activity and is indicative of the number of surviving cells. […] Cells were seeded in 96-well plates (6000 cells/well) and treatment was started 24 hr after seeding the cells. After completion of the treatment, cells were incubated at 37° C. with the MTT reagent for 3 hr and processed according to manufacturers instructions (Promega Corporation, Madison, Wis.). Color development was measured at 490 nm on a Spectra MAX 340 microplate reader (Molecular Devices, Menlo Park, Calif.).” for “experiment.”
A general note: Tetrazolium assays rely on reduction of a dye to a coloured formazan, in cell work by metabolically active cells.

Assay [4] has as its system LNCaP cells. The assay is described as follows: MTT assay (cell survival). As to conditions: for cell survival: 400 ng/ml TRAIL and/or 10 μM Mifepristone for three days, FIG. 1A. On the procedure:
as §1, with “experiment. Two methods were used to measure induction of apoptosis by drug treatment: the MTT assay and the Apoptosense assay. The MTT assay measures mitochondrial enzyme activity and is indicative of the number of surviving cells. […] Cells were seeded in 96-well plates (6000 cells/well) and treatment was started 24 hr after seeding the cells. After completion of the treatment, cells were incubated at 37° C. with the MTT reagent for 3 hr and processed according to manufacturers instructions (Promega Corporation, Madison, Wis.). Color development was measured at 490 nm on a Spectra MAX 340 microplate reader (Molecular Devices, Menlo Park, Calif.).” for “experiment.”

The mark [5] stands for this setting: 200 ng/ml TRAIL compared with 400 ng/ml, data not shown.
[6] abbreviates: 600 ng/ml TRAIL compared with 400 ng/ml, data not shown.

For the molecule `CC#C[C@]1(O)CC[C@H]2[C@@H]3CCC4=CC(=O)CCC4=C3[C@@H](c3ccc(N(C)C)cc3)C[C@@]21C` [Mifepristone], the DR4 levels result in assay [1] and in assay [2] was “did not show significant changes” each time. Also, the “activation of procaspase-8” value in assay [1] (FIG. 3B) and in assay [2] (FIG. 3A) was “small increase in the activation of caspase-8” each time. Further, in assay [1] (FIG. 3D), the “induction of caspase-3” value is listed as “nor is it effective in inducing caspase-3”. Also, the “expression of DR5” value in assay [2] is reported as “significant increase”. Further, the “activation of caspase-3” value in assay [2] (FIG. 3C) is on record as “activates caspase-3”. For the same molecule, in assay [2] (Mifepristone pre-treatment, then TRAIL, FIG. 3C), the “activation of caspase-7 in TRAIL-treated cells after pre-treatment with Mifepristone” value is “activated caspase-7 by 4 hr”. In addition, the cell survival result in assay [3] and in assay [4] was “little effect on survival” in each case.

B1: Tumor necrosis factor α—Related Apoptosis Inducing Ligand (protein, UniProt P50591 1-281, looked up)
Tumor necrosis factor ligand …: MAMMEVQGGPSLGQTCVLIVIFTVLLQSLCVAVTYVYFTNELKQMQDKYSKSGIACFLKEDDSYWDPNDEESMNSPCWQVKWQLRQLVRKMILRTSEETISTVQEKQQNISPLVRERGPQRVAAHITGTRGRSNTLSSPNSKNEKALGRKINSWESSRSGHSFLSNLHLRNGELVIHEKGFYYIYSQTYFRFQEEIKENTKNDKQMVQYIYKYTSYPDPILLMKSARNSCWSKDAEYGLYSIYQGGIFELKENDRIFVSVTNEHLIDMDHEASFFGAFLVG
notes: 281 amino acid type II transmembrane protein of the tumor necrosis factor α family; purchased from Biomol
Turning to B1, the DR4 levels result in assay [1] and in assay [2] was “did not show significant changes” throughout. Further, the “cytochrome c levels in cytosol” value in assay [1] (FIG. 5B) and in assay [2] (FIG. 5A) was “increased cytochrome c levels in cytosol within 15 min” throughout. In assay [2] (15 min, FIG. 8), the “phosphorylated Akt” value was “slightly decreased phosphorylated Akt”. In addition, the “expression of DR5” value in assay [2] is “did not increase significantly”. Further, the “activation of procaspase-8” value in assay [2] (FIG. 3A) is “decrease in the 57 KDa procaspase-8 protein as early as 2 hr”. For the same molecule, the “truncated Bid (tBid)” value in assay [2] (FIG. 3A) is “tBid was noted by 2 hr”. The “activation of caspase-3” value in assay [2] (FIG. 3C) is “yielded cleaved 17 KDa caspase-3 product by 2 hr”. For the same molecule, the “activation of caspase-7” value in assay [2] (FIG. 3C) is “activated caspase-7 by 20 hr”. In addition, the “cell death at lower concentration of TRAIL” value in assay [3] (setting [5]) and in assay [4] (setting [5]) was “lower cell death” each time. The cell survival result in assay [3] is on record as “reduced cell survival as early as 8 hr”; in assay [4] it was “did not alter cell survival significantly”. For the same molecule, the “apoptosis at higher dose of TRAIL” value in assay [3] (setting [6]) and in assay [4] (setting [6]) was “did not increase apoptosis significantly” throughout.

These data come from patent US20020115613A1, “Treatment of prostate cancer” (priority 2001, published 2002).
